The labels stand for the following.
T1: biotinylated K-ε-GG peptide (AAA{K-ε-GG}AAA) (also: biotinylated, position not given here)
T1 construct: also called branched diglycine peptide
T1 peptide: AAAK([Gly-Gly])AAA

B1: anti-GGX monoclonal antibody 2B12 (rabbit IgG) (antibody, V domains shown)
VH: QSVEESGGGLVTPGGALTLTCTASGFSLNRHWMNWVRQAPGKGLEWIGAINESGRTYYATWAKGRFFISKTTTTVDLKITSPTTADTATYFCVRDDDVSNFWGPGTLVTVSS
VL: DPMLTQTPSSVSAAVGGTVSINCQSTKSVYKYNHLSWYQQKPGQPPKQLIFPASTLQSGVPSRFSGSGSGTQFTLTISDVQCDDAATYYCLGLYDCRSGDCNVFGGGTKLEIKG
notes: also called anti-GGX antibody 2B12
B2: anti-GGX monoclonal antibody 1C7 (rabbit IgG) (antibody, V domains shown)
VH: QSVKESGGRLVTPGTPLTLTCKVSGFSLSSYYMNWVRQAPGKGLEWIGIMFPNGKIYYATWAKGRFTISKTSTTVDLKIISPTTEDTATYFCTGDDSGDVNIWGPGTLVTVSS
VL: DIVLTQTASPVSAAVGGTVTINCQSSQSVYTNNRLAWYQQKPGQPAKEMIYGASTLPSGVSSRFKGSGSGTQFALTISDVQCDDAATYYCLGTYDCLSADCLAFGGGTKLEIKG
notes: also called anti-GGX antibody 1C7; anti-GGX mAb
B3: anti-GGX monoclonal antibody 2E9 (rabbit IgG) (antibody, V domains shown)
VH: QKQLMESGGRLVTPGTPLTLTCKVSGFSLSSYYMNWVRQAPGKGLEWIGIMFPNGKIYYATWAKGRFTISKTSTTVDLKIISPTTEDTATYFCTGDDSGDVNIWGPGTLVTVSS
VL: DIVLTQTASPVSAAVGGTVTINCQSSQSVYTNNRLAWYQQKPGQPAKEMIYGASTLPSGVSSRFKGSGSGTQFALTISDVQCDDAATYYCLGEFDCTSADCFVFGGGTEVVVKG
notes: also called anti-GGX antibody 2E9; anti-GGX 2E9 antibody
B4: anti-GGX monoclonal antibody 2H2 (rabbit IgG) (antibody, V domains shown)
VH: QSVEESRGRLVTPGTPLTLTCKVSGFSLSSYYMNWVRQAPGKGLEWIGIMFPNGKIYYATWAKGRFTISKTSTTVDLKIISPTTEDTATYFCTGDDSGDVNIWGPGTLVTVSS
VL: DPMLTQTASPVSAAVGGTVTINCQSSQSVYSNNRLAWYQQKPGQPPKEMIYGASTLPSGVSSRFKGSGSGTQFTLTISDVQCDDAATYYCLGTYDCLSADCLAFGGGTEVVVKG
notes: also called anti-GGX antibody 2H2; anti-GGX 2H2 antibody

Groups on a side chain read outwards from the residue. No end group written: not given here.

This test concerns the target T1, biotinylated K-ε-GG peptide …. The test can be described thus: ELISA, biotinylated peptide on neutravidin plates. The procedure: Biotinylated peptides (GGM and K-ε-GG) were coated at 1 μg/mL in PBS on neutravidin ELISA plates (Thermo Scientific) in triplicate overnight at 4° C. Plates were washed with PBST prior to use. Serial dilutions of GGX mAbs or K-ε-GG mAb (Cell Signaling Technology) at 1 μg/mL were added for 1-2 hours at 25° C. Plates were washed and further developed as described above (see FIG. 1E).
For the molecule B1, the binding result was “no binding (tested: 1 µg/mL)”. With B2 the entry was “no binding (tested: 1 µg/mL)”; with B3, “no binding (tested: 1 µg/mL)”; with B4, “no binding (tested: 1 µg/mL)”.

The values are drawn from patent publication US20240109958A1 (Genentech, published 2024).
